In US8258099B2, “Pin1-modulating compounds and methods of use thereof” (Max-Planck-Gesellschaft zur Foerderung der Wissenschaften …, priority 2004, dated 2012):
Where two headings read alike, the source gives them in different places. Square brackets hold non-standard residues; d marks the D form. * marks the point of attachment. Biotin = O=C1N[C@H]2[C@H](CS[C@H]2CCCCC(=O)*)N1; d(pT) = C[C@H](OP(=O)(O)O)[C@@H](N)C(=O)O; pT = C[C@@H](OP(=O)(O)O)[C@H](N)C(=O)O; 2Nal = N[C@@H](Cc1ccc2ccccc2c1)C(=O)O; Bta = N[C@@H](Cc1csc2ccccc12)C(=O)O; Pip = O=C(O)[C@@H]1CCCCN1; Bth = benzothiophene

Experiments:
[1] = target: T1, full-length hPin1 (human, UniProt Q13526 1-163); test: isothermal titration calorimetry, single binding site model
T1 sequence (Q13526 whole entry): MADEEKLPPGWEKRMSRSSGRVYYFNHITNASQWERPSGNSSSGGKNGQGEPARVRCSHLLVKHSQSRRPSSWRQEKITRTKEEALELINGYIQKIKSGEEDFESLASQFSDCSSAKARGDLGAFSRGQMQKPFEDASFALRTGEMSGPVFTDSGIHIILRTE

[2] = target: T1, full-length hPin1; test: method not stated there (ITC value of paragraph 223 rounded); D isomer
[3] = target: T1, full-length hPin1; test: isothermal titration calorimetry, 10 °C, full-length hPin1 in the cell
[4] = target: T1, full-length hPin1; test: comparison of Kd values
[5] = tested on: X. laevis embryos; test: Microinjection in X. laevis embryos, cell division; format: in vivo; conditions: microinjection at stage 2
Procedure: FIG. 8 depicts the blocking of cell division by the injection of peptide 17 in X. laevis embryos. 50-300 pmol of peptide 17 or 300 pmol of its nonphosphorylated derivative (control) dissolved in 10 nl PBS buffer were microinjected in the animal half of X. laevis embryos at stage 2 of development. Embryos with large and/or apoptotic appearing cells surrounded by normally developing cells were counted after further 5 hours (stage 8-9) of development. […] Each value is the average of four independent experiments.
FIGS. 9A-F depicts phenotypic analysis of X. laevis embryos after injection of peptide 17. 300 pmol of peptide 17 or its nonphosphorylated derivative dissolved in 10 nl PBS buffer were injected in the animal half of X. laevis embryos at stage 2 of development. 1.5 hour at stage 6 (A), 2.5 hours at stage 7 (B) and 4-5 hours at stage 8-9 (C, D) after injection enlarged cells became visible. Cells that are blocked in cell division are marked with a white arrow. Controls of uninjected embryos of stage 8-9 and embryos that were injected with 300 pmol of the nonphosphorylated derivative of peptide 17 are shown in panels E and F. The site where the nonphosphorylated derivative of peptide 17 was injected is marked with a white arrow (F).
FIGS. 10A-D depict the rescue of peptide 17 caused cell division block in X. laevis embryos by hPin1 (A, B) and different hPin1 variants (C, D). FIG. 10A depicts the time course of V5-tagged hPin1 expression was analyzed by preparation of X. laevis embryo lysate 1, 2 and 4 hours after injection of 1, 2 or 3 ng of V5-tagged hPin1 mRNA. In every case, the injected volume was 10 nl. Lysates were prepared in lysis buffer containing phosphatase and protease inhibitors. Samples were separated by SDS PAGE followed by western blotting. Endogenous XlPin1 and V5-tagged hPin1 were detected using an anti hPin1 PPIase domain antiserum as primary antibody followed by incubation with a horseradish peroxidase-conjugated secondary antibody. Visualization was done using the SuperSignal® substrate. […] In every case, the whole volume of injection was 10 nl. The indicated amount of the mRNA was injected in the animal half of 30 embryos at stage 2 of development. Embryos with large and/or apoptotic appearing cells surrounded by normally developed cells were counted after additional 5 hours of development (stage 8-9). […] Each percentage of vital embryos shown in the figure is the average of four independent experiments. FIG. 10C indicates the expression of V5-tagged hPin1 variants was evaluated by preparation of embryo lysate after 4 hours of injection of the respective mRNA (2 ng) in X. laevis embryos. Lysates were prepared in lysis buffer containing phosphatase and protease inhibitors. Samples were separated using SDS PAGE followed by western blot analysis. Endogenous XlPin1 and injected V5-tagged hPin1 variants were detected using an anti hPin1 PPIase domain antiserum as primary antibody and a horseradish peroxidase-conjugated secondary antibody. Visualization was done by a chemiluminescent reaction using the SuperSignal® substrate (Pierce). FIG. 10D depicts 250 pmol of peptide 17 was coinjected with 2 ng mRNA of the indicated V5-tagged hPin1 variant (whole volume 10 nl) in the animal half of 30 X. laevis embryos at stage 2 of development. Results were analyzed as described for FIG. 10B. Each percentage of vital embryos shown in the figure is the average of four independent experiments.
Microinjection was done into the animal half of X. laevis embryos at stage 2 of development. In every case, the injection volume was 10 nl. Immunofluorescence studies of frozen X. laevis embryo sections were performed as previously described (Julius et al., 2000). Ten-micrometer cryosections of stage 8 embryos were labelled using a monoclonal anti hPin1 antibody (mouse) followed by incubation with Alexa Fluor 546™-conjugated anti mouse antibody of goat serum (Molecular Probes). […]

[6] = target: T2, interaction of MPM-2 antigens with GST-hPin1 (Homo sapiens, UniProt Q13526); test: MPM-2 competition assay; format: binding; conditions: mitotic HeLa cell lysate, 8 μM GST-hPin1
T2 construct: made in house
T2 sequence (Q13526 whole entry): as above
Procedure: FIG. 7 depicts the influence of peptide 17 on the interaction of MPM-2 antigens with hPin1. The indicated concentration of peptide 17 or its nonphosphorylated derivative (control) was incubated with an 8 μM solution of GST-hPin1. After addition of mitotic HeLa cell lysate, GST-hPin1 was extracted from the respective mixture using glutathione sepharose. Samples were analyzed regarding extracted GST-hPin1 and coprecipitated MPM-2 antigenes by SDS PAGE and western blot analysis. Untreated lysate of mitotic HeLa cells was loaded on the first line (extract). MPM-2 antigenes were detected using the monoclonal anti MPM-2 antibody (mouse). GST-hPin1 was detected using an anti hPin1 PPIase domain antiserum (rabbit). Horseradish peroxidase-conjugated antibodies from mouse or rabbit were used as secondary antibodies. […]
1.3 mM of Peptide 17 or its nonphosphorylated derivative were incubated with GST-hPin1 (8 μM) for 2 hours at 4° C. […] Following SDS-PAGE, the samples were analyzed by western blot analysis. GST-hPin1 and coextracted MPM-2 antigens were detected using an anti hPin1 PPIase domain antiserum (rabbit) or monoclonal anti MPM-2 antibody (Upstate Biotechnology) from mouse. […]
MPM-2 antigens are mitotic phosphoproteins that are specifically recognized by the monoclonal antibody MPM-2. […] The coextracted MPM-2 antigenes were detected after SDS PAGE by western blot analysis using the anti MPM-2 antibody. […]

[7] = target: hPar14 (Homo sapiens, UniProt Q9Y237); test: Protease coupled PPIase assay, hPar14; format: biochemical; conditions: up to 50 μM
Chain of hPar14 (Q9Y237 whole entry): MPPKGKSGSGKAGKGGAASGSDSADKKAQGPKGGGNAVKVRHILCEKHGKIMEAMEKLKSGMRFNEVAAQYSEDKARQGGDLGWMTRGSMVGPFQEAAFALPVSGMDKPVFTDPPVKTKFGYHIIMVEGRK
Procedure: FIG. 6 depicts the influence of peptide 17 on the hPar14 PPIase activity. The apparent first order rate constant kobs determined for the cis to trans isomerization of the arginyl-prolyl peptide bond of the substrate Suc-Ala-Arg-Pro-Phe-NH-Np (SEQ ID NO: 3) was measured using the protease coupled PPIase assay. α-Chymotrypsin was used as isomer specific protease. As control, the nonphosphorylated derivative of peptide 17 was used.
PPIase activities were monitored on a Hewlett-Packard 8452A diode array spectrophotometer according to Fischer et al., 1984 and Zhang et al., 2002. The hPar14 PPIase activity was measured with Suc-Ala-Arg-Pro-Phe-NH-Np (SEQ ID NO: 3) (final concentration 75 μM) as substrate and α-chymotrypsin (final concentration 60 μM) as isomer specific protease. PPIase activity of hCyp 18 and FKBP12 were measured using Suc-Ala-Ala-Pro-Phe-NH-Np (SEQ ID NO: 7) as substrate (final concentration 16 μM) and α-chymotrypsin (final concentration 60 μM) as isomer specific protease. PPIase activity of hPin1 was measured with Ac-Ala-Ala-Ser(PO3H2)-Pro-Arg-NH-Np (SEQ ID NO: 4) (final concentration 10 μM) as substrate and trypsin (final concentration 60 μM) as isomer specific protease. Final concentrations of the PPIases were 1.7 μM for hPar14, 4 nM for hPin1, 7 nM for FKBP12 and 9.7 nM for hCyp18. […] Measurements were monitored at 390 nm. […]

[8] = target: T1, full-length hPin1; test: cell-based or functional assay
[9] = target: T1, full-length hPin1; test: inhibition of PPIase activity
[10] = target: T1, full-length hPin1; test: cell-based or functional assay; remark: listed apart in the source
[11] = target: T1, full-length hPin1; test: cell-based or functional assay; remark: listed apart in the source

## peptide 17, Ac-Phe-D-Thr(PO3H2)-Pip-Nal-Gln-NH2
[1]
  Ka: 5.18e+07 M⁻¹
  n (binding stoichiometry): 0.96
[2]
  Kd: 19 nM
[3]
  binding enthalpy ΔHbind: -4.56 kcal/mol
  binding entropy TΔSbind: 5.43 kcal/mol
[4]
  fold tighter binding against Ac-Phe-L-Thr(PO3H2)-Pip-Nal-Gln-NH2: 30 fold

## nonphosphorylated derivative of peptide 17: nonphosphorylated derivative of peptide 17, used as control (Ac-F[dT][Pip][2Nal]Q-NH2) [reference compound]
[5]
  effect on development of the embryos: no visible effect
[6]
  influence on interaction of MPM-2 antigenes with GST-hPin1: had no effect
[7]
  inhibition of hPar14 PPIase activity: No inhibition

B1: peptide 15, Ac-Lys(N^ε-biotinoyl)-Ala-Ala-Bth-Thr(PO3H2)Pip-Nal-Gln-NH2 (peptide)
peptide: Ac-K(Biotin)AA[Bth][pT][Pip]AQ-NH2
modifications: not fully specified (residue 7); printed as Ac-Lys(N^ε-biotinoyl)-Ala-Ala-Bth-Thr(PO3H2)Pip-Nal-Gln-NH2
[8]
  IC50(µM), blockade of the PPIase activity of hPin1, protease free PPIase assay: 0.21 µM

## Ac-K(Biotin)AA[Bta][d(pT)][Pip][2Nal]Q-NH2 [peptide 16, Ac-Lys(N^ε-biotinoyl)-Ala-Ala-Bth-D-Thr(PO3H2)-Pip-Nal-Gln-NH2]
[9]
  fold decrease of Ki against peptide 15: 150 fold

## Ac-K(Biotin)AA[Bta][pT]P[2Nal]Q-NH2 [peptide 4]
[10]
  IC50(µM), blockade of the PPIase activity of hPin1, protease free PPIase assay: 20 µM
[11]
  fold decrease of inhibition of hPin1 PPIase activity against peptide 15: 100 fold
